Laboratory results as given in US20240052042A1 (Novartis, published 2024).

How the values were obtained:
[1] = target: T1, human NPR1 on CHO-K1 cells in the presence of ANP (human, UniProt P01160 124-151); assay: flow cytometry (FL2-H) on hNPR1 CHO-K1 cells with saturating ANP, IgG titrated; control parental CHO-K1 [panel XX04]
T1 construct: also called hNPR1 CHO K1 + 100 nM ANP
T1 sequence: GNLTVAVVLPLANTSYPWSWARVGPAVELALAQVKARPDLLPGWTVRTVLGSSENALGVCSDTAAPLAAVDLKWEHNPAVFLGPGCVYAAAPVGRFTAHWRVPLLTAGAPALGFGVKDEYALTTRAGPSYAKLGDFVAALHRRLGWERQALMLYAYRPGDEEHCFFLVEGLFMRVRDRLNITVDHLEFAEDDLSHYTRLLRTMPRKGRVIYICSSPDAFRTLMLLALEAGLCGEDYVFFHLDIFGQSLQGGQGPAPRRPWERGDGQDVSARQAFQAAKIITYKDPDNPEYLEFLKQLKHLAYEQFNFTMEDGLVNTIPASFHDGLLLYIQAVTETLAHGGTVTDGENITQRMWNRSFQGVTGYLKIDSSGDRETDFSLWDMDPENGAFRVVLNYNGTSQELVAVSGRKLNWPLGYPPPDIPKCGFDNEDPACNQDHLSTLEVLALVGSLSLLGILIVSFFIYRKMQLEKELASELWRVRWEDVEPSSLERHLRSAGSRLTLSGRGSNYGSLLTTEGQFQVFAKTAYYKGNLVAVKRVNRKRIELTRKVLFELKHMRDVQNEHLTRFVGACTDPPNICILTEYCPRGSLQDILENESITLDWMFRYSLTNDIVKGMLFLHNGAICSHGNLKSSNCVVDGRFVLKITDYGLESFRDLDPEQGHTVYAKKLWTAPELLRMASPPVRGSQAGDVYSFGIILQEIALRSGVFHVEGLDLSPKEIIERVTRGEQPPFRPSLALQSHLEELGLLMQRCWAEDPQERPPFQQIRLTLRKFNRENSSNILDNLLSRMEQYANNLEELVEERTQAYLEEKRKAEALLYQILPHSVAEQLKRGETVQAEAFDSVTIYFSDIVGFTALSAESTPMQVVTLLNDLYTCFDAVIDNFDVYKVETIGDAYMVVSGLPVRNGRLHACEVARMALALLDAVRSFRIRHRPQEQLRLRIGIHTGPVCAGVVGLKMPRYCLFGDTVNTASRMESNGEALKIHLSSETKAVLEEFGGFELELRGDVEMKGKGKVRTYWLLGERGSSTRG
T1 sequence (peptide): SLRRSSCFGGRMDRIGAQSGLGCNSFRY

[2] = target: T2, human NPR3 in the presence of ANP (human, UniProt P17342 27-481; P01160 124-151, limits assumed); assay: ELISA, IgG titrated on coated antigen with ANP (250 fold molar excess), fluorescence [Cont.]
T2 construct: also called hNPR3 + 100 nM ANP
T2 sequence (looked up): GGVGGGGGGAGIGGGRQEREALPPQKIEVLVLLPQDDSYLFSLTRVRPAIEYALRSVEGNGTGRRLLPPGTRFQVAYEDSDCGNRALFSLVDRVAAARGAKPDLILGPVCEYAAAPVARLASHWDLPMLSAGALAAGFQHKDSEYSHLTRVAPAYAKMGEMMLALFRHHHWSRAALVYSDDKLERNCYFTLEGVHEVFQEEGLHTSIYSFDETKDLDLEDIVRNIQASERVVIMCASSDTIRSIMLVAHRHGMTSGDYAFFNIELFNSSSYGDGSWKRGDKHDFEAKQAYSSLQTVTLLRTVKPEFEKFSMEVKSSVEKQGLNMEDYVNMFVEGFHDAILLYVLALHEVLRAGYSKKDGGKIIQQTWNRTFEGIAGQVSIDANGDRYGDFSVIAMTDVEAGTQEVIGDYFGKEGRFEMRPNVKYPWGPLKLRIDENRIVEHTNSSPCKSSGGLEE
T2 sequence (peptide, looked up): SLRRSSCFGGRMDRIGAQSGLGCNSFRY

[3] = target: T1, human NPR1 on CHO-K1 cells in the …; assay: flow cytometry (FL2-H) on hNPR1 CHO-K1 cells with saturating ANP, IgG titrated; control parental CHO-K1 [panel XX03]
[4] = target: T3, human NPR3 (counter target) (human, UniProt P17342 27-481, limits assumed); assay: ELISA, IgG titrated on coated antigen, fluorescence [Cont.]
T3 construct: Pannings used hNPR3-hFc; also called hNPR3; hNPR3-hFc
T3 sequence (looked up): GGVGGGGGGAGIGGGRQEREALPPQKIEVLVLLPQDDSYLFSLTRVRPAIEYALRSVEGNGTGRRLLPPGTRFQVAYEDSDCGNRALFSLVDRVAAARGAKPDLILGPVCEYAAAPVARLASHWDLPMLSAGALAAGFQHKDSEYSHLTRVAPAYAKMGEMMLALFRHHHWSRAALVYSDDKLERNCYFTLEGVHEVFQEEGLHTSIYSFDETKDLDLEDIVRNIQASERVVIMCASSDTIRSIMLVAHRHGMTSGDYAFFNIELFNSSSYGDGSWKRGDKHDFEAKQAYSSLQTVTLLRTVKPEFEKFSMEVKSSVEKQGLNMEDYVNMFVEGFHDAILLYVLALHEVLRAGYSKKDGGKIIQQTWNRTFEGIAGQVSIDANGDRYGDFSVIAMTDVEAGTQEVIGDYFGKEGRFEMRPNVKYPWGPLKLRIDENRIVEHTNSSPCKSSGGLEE

[5] = target: T4, hNPR1-ANP complex (human, UniProt P01160 124-151, limits assumed); assay: FRET ANP competition assay, IgG titrated on hNPR1 with Cy5-labeled ANP; negative values mean more ANP signal [panel XX01]
T4 construct: hNPR1 antigen in the presence of ANP; also called hNPR1 + 100 nM ANP
T4 sequence: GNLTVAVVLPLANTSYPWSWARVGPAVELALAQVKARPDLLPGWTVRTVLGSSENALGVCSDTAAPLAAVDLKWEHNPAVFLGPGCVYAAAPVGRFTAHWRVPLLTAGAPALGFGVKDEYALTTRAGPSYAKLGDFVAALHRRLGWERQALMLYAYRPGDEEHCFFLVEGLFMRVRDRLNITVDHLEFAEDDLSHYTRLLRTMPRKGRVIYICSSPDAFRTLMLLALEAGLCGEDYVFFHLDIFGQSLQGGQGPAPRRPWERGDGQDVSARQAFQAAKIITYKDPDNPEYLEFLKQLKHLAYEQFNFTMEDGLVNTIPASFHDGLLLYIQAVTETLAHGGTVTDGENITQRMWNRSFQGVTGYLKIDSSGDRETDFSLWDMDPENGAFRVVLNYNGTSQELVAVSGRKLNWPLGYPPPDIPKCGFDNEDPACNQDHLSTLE
T4 sequence (peptide): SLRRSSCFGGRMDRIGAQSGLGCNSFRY
Experimental: The same 31 IgGs were tested for ANP competition using a Fluorescence Resonance Energy Transfer (FRET)-based assay in which the NPR1-specific antibodies competed with ANP for binding to NPR1. In this FRET based assay (see FIG. 3), Eu-labeled Streptavidin (for measurement of IgGs) or Eu-labeled anti-hFc antibody (for measurement of FabCys) was used as an energy donor, while Cy5-labeled ANP was used as an acceptor (for all measurements). The resulting fluorescent signal was decreased by ANP-competitive antibodies. The assay was performed as follows: antibodies were mixed with NPR1 and incubated for 5 minutes at room temperature. After addition of the Eu-labeled donor and incubation for 30 minutes at room temperature, the Cy5-ANP solution was added. After a further 60-minute incubation, readout was performed using a TECAN Infinite M1000 Pro using an excitation wavelength of 317 nm and an emission wavelength of 665 nm. Percentage of ANP competition was calculated according to the following formulae: […]

[6] = target: T1, human NPR1 on CHO-K1 cells in the …; assay: flow cytometry (FL2-H) on hNPR1 CHO-K1 cells with saturating ANP, IgG titrated; control parental CHO-K1 [panel XX01]

B1: XX04 (IgG format) (antibody, V domains shown)
VH: QVQLLESGGGLVQPGGSLRLSCAASGFTFSSYWMNWVRQAPGKGLEWVSAISSDGSYTYYADSVKGRFTISRDNSKNTLYLQMNSLRAEDTAVYYCARDRYSMIYSYGAGAFDYWGQGTLVTVSS
VL: DIQMTQSPSSLSASVGDRVTITCRASQGISSYLAWYQQKPGKAPKLLIYTASTLQSGVPSRFSGSGSGTDFTLTISSLQPEDFATYYCQQEWVKPRTFGQGTKVEIK
EC50 (read off the curve) [1]: ~2 nM

B2: XX03 (IgG format) (antibody, V domains shown)
VH: EVQLLESGGGLVQPGGSLRLSCAASGFTFSSYWMNWVRQAPGKGLEWVSVIESKGNYIFYADSVKGRFTISRDNSKNTLYLQMNSLRAEDTAVYYCARDRYSMIYSYGAGAFDYWGQGTLVTVSS
VL: DIQMTQSPSSLSASVGDRVTITCRASQGISSYLAWYQQKPGKAPKLLIYTASTLQSGVPSRFSGSGSGTDFTLTISSLQPEDFATYYCMQSYEKPRTFGQGTKVEIK
binding result [2]: no binding (tested: 200 nM)
EC50 (read off the curve) [3]: ~1 nM
binding result [4]: no binding (tested: 200 nM)

B3: XX01 (IgG format) (antibody, V domains shown)
VH: EVQLLESGGGLVQPGGSLRLSCAASGFTFNTHYIHWVRQAPGKGLEWVSSISSSGQSTYYADSVKGRFTISRDNSKNTLYLQMNSLRAEDTAVYYCARERGYVYYHMFDPWGQGTLVTVSS
VL: DIVLTQSPATLSLSPGERATLSCRASQSITRNYLAWYQQKPGQAPRLLIYGASSRATGIPARFSGSGSGTDFTLTISSLEPEDFAVYYCQQHSMYPRTFGQGTKVEIK
EC50 (read off the curve) [5]: ~0.1 nM
EC50 (read off the curve) [6]: ~0.8 nM
